# Data as given in the supplement of paper PMC9112550, “Optimization of the antimicrobial peptide Bac7 by deep mutational scanning” (BMC Biology, 2022).
# Test system: Escherichia coli TOP10
# Assay: shrunken log2 fold change of peptide-encoding DNA abundance (4.5 h post-induction vs induction); higher = less antimicrobial activity (less host growth inhibition)
# Conditions: time post-induction: 4.5 h; library: site-saturation at positions 5, 18, 19, 20
# 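Note: peptides expressed intracellularly from a pBAD plasmid library in pooled LB shake-flask culture, induced with 0.3% L-arabinose, DNA abundance read by NGS, three biological replicates, DESeq2 with apeglm shrinkage.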
row,Sequence,shrunken log2 fold change
1,RRIRQRPPRLPRPRPRPVREPRP,-0.00762
2,RRIRTRPPRLPRPRPRPWRDPRP,0.00299
3,RRIRIRPPRLPRPRPRPEEKPRP,0.461
4,RRIRIRPPRLPRPRPRPAHMPRP,-0.303
5,RRIRKRPPRLPRPRPRPCAFPRP,0.0922
6,RRIRFRPPRLPRPRPRPATEPRP,0.0616
7,RRIRWRPPRLPRPRPRPQYFPRP,-0.181
8,RRIRGRPPRLPRPRPRPQGFPRP,0.441
9,RRIRQRPPRLPRPRPRPSVGPRP,0.119
10,RRIRDRPPRLPRPRPRPRKQPRP,-0.0319
11,RRIRPRPPRLPRPRPRPENTPRP,0.11
12,RRIRMRPPRLPRPRPRPWYTPRP,-0.012
13,RRIRQRPPRLPRPRPRPNWLPRP,0.259
14,RRIRARPPRLPRPRPRPMHHPRP,0.112
15,RRIRWRPPRLPRPRPRPNYRPRP,-0.034
16,RRIRRRPPRLPRPRPRPHLNPRP,-0.194
17,RRIRTRPPRLPRPRPRPPMAPRP,0.176
18,RRIRIRPPRLPRPRPRPSKPPRP,-0.189
19,RRIRSRPPRLPRPRPRPWHAPRP,0.0362
20,RRIRPRPPRLPRPRPRPDHQPRP,-0.0869
21,RRIRRRPPRLPRPRPRPWQGPRP,-0.00783
22,RRIRHRPPRLPRPRPRPWHAPRP,-0.0793
23,RRIRCRPPRLPRPRPRPHCCPRP,0.0538
24,RRIRRRPPRLPRPRPRPTHHPRP,0.8
25,RRIRFRPPRLPRPRPRPNNLPRP,-0.12

row,Sequence,shrunken log2 fold change
1,RRIRMRPPRLPRPRPRPAWNPRP,0.43
2,RRIRYRPPRLPRPRPRPVPMPRP,-0.158
3,RRIRSRPPRLPRPRPRPNSEPRP,-0.262
4,RRIRGRPPRLPRPRPRPMMCPRP,0.0367
5,RRIRTRPPRLPRPRPRPSSIPRP,-0.233
6,RRIRSRPPRLPRPRPRPMEHPRP,-0.122
7,RRIRVRPPRLPRPRPRPYNKPRP,-0.707
8,RRIRIRPPRLPRPRPRPSLRPRP,-0.72
9,RRIRVRPPRLPRPRPRPYSLPRP,-0.533
10,RRIRMRPPRLPRPRPRPIYMPRP,-0.0618
11,RRIRERPPRLPRPRPRPAMYPRP,-0.205
12,RRIRQRPPRLPRPRPRPCWWPRP,0.0676
13,RRIRKRPPRLPRPRPRPVNYPRP,-0.0716
14,RRIRIRPPRLPRPRPRPRGAPRP,0.175
15,RRIRARPPRLPRPRPRPLWVPRP,0.959
16,RRIRNRPPRLPRPRPRPWTYPRP,-0.351
17,RRIRCRPPRLPRPRPRPDTHPRP,-0.716
18,RRIRARPPRLPRPRPRPGTAPRP,0.493
19,RRIRLRPPRLPRPRPRPAPWPRP,0.354
20,RRIRSRPPRLPRPRPRPFSEPRP,0.00901
21,RRIRPRPPRLPRPRPRPPPTPRP,0.761
22,RRIRKRPPRLPRPRPRPIFWPRP,0.313
23,RRIRVRPPRLPRPRPRPISIPRP,-0.133
24,RRIRSRPPRLPRPRPRPFLQPRP,-0.267
25,RRIRFRPPRLPRPRPRPDINPRP,-0.302

row,Sequence,shrunken log2 fold change
1,RRIRGRPPRLPRPRPRPYCDPRP,0.226
2,RRIRVRPPRLPRPRPRPERMPRP,-0.0652
3,RRIRPRPPRLPRPRPRPRMTPRP,0.288
4,RRIRFRPPRLPRPRPRPCGAPRP,0.0828
5,RRIRRRPPRLPRPRPRPWHLPRP,-0.138
6,RRIRSRPPRLPRPRPRPHIEPRP,-0.295
7,RRIRWRPPRLPRPRPRPMMEPRP,0.134
8,RRIRFRPPRLPRPRPRPVATPRP,0.547
9,RRIRRRPPRLPRPRPRPWRCPRP,0.175
10,RRIRMRPPRLPRPRPRPSIYPRP,-0.726
11,RRIRIRPPRLPRPRPRPCWAPRP,-0.283
12,RRIRNRPPRLPRPRPRPTWNPRP,-0.0528
13,RRIRGRPPRLPRPRPRPKIKPRP,0.564
14,RRIRYRPPRLPRPRPRPQGIPRP,-0.236
15,RRIRARPPRLPRPRPRPQQNPRP,0.166
16,RRIRPRPPRLPRPRPRPGQHPRP,0.0653
17,RRIRNRPPRLPRPRPRPTKPPRP,0.24
18,RRIRKRPPRLPRPRPRPYKEPRP,-0.417
19,RRIRYRPPRLPRPRPRPASQPRP,-0.08
20,RRIRHRPPRLPRPRPRPLHTPRP,0.143
21,RRIRRRPPRLPRPRPRPDRWPRP,0.957
22,RRIRPRPPRLPRPRPRPVYGPRP,-0.486
23,RRIRKRPPRLPRPRPRPSPKPRP,0.057
24,RRIRWRPPRLPRPRPRPDAYPRP,0.309
25,RRIRCRPPRLPRPRPRPAMSPRP,0.0552

row,Sequence,shrunken log2 fold change
1,RRIRLRPPRLPRPRPRPCTSPRP,-0.114
2,RRIRHRPPRLPRPRPRPRQDPRP,-0.189
3,RRIRSRPPRLPRPRPRPHSNPRP,-0.358
4,RRIRVRPPRLPRPRPRPVMFPRP,-0.305
5,RRIRSRPPRLPRPRPRPCNDPRP,-0.261
6,RRIRLRPPRLPRPRPRPSKTPRP,-0.258
7,RRIRWRPPRLPRPRPRPKREPRP,0.0441
8,RRIRQRPPRLPRPRPRPHIPPRP,-0.0245
9,RRIRDRPPRLPRPRPRPHRNPRP,-0.0138
10,RRIRSRPPRLPRPRPRPAVKPRP,-0.177
11,RRIRPRPPRLPRPRPRPICGPRP,0.103
12,RRIRQRPPRLPRPRPRPPVMPRP,-0.285
13,RRIRKRPPRLPRPRPRPLWMPRP,-0.0285
14,RRIRARPPRLPRPRPRPEPFPRP,0.0204
15,RRIRNRPPRLPRPRPRPMPTPRP,0.257
16,RRIRRRPPRLPRPRPRPQPTPRP,0.533
17,RRIRHRPPRLPRPRPRPNYAPRP,0.0414
18,RRIRFRPPRLPRPRPRPPQKPRP,0.719
19,RRIRERPPRLPRPRPRPEESPRP,0.148
20,RRIRRRPPRLPRPRPRPVMLPRP,-0.0342
21,RRIRNRPPRLPRPRPRPASHPRP,0.0783
22,RRIRVRPPRLPRPRPRPFKAPRP,-0.316
23,RRIRIRPPRLPRPRPRPFEPPRP,-0.204
24,RRIRDRPPRLPRPRPRPMQAPRP,-0.00208
25,RRIRARPPRLPRPRPRPKHHPRP,-0.00948

row,Sequence,shrunken log2 fold change
1,RRIRLRPPRLPRPRPRPWGLPRP,0.171
2,RRIRHRPPRLPRPRPRPTWKPRP,-0.011
3,RRIRVRPPRLPRPRPRPWADPRP,-0.0322
4,RRIRTRPPRLPRPRPRPARKPRP,0.179
5,RRIRQRPPRLPRPRPRPNGQPRP,-0.262
6,RRIRLRPPRLPRPRPRPQLDPRP,0.0655
7,RRIRWRPPRLPRPRPRPFWIPRP,0.0876
8,RRIRNRPPRLPRPRPRPNMTPRP,-0.345
9,RRIRCRPPRLPRPRPRPRPKPRP,0.901
10,RRIRWRPPRLPRPRPRPEYYPRP,-0.13
11,RRIRMRPPRLPRPRPRPIKDPRP,-0.165
12,RRIRHRPPRLPRPRPRPVVGPRP,0.0224
13,RRIRQRPPRLPRPRPRPDNLPRP,-0.348
14,RRIRKRPPRLPRPRPRPNCYPRP,-0.08
15,RRIRCRPPRLPRPRPRPVVIPRP,-0.223
16,RRIRERPPRLPRPRPRPMRWPRP,0.472
17,RRIRDRPPRLPRPRPRPFGHPRP,-0.138
18,RRIRQRPPRLPRPRPRPQGEPRP,-0.154
19,RRIRQRPPRLPRPRPRPTIEPRP,0.0419
20,RRIRGRPPRLPRPRPRPFRFPRP,0.485
21,RRIRWRPPRLPRPRPRPPTWPRP,0.802
22,RRIRPRPPRLPRPRPRPDRNPRP,-0.0925
23,RRIRKRPPRLPRPRPRPKRWPRP,0.906
24,RRIRQRPPRLPRPRPRPDFQPRP,-0.0253
25,RRIRKRPPRLPRPRPRPHIQPRP,-0.224
